The nature of series [1]: stability of GAP activity to freezing/thawing or storage. The series is classed as physicochemical. The settings on record: freezing/thawing or storage at 4° C. for 6 months.
Series [2] concerns c-HaRas protein. Put plainly: Ras GTPase stimulating activity: hydrolysis of [gamma-32P] GTP bound to c-HaRas protein, by GST fusion NF1 mutants. The series is classed as biochemical, murine. The source says:
N- and C- terminal deletion mutants were constructed by subcloning the corresponding PCR DNA fragments into the bacterial expression vector pGEX-2TH, as described in Maruta et al., supra. FIG. 4 sets forth the DNA fragments inserted into the expression vector. The number following NF of each mutant indicates the total amino acid residues included. The DNA fragments inserted include the DNA for human type I NF357, human type II NF1-GRD (amino acid residues 1355 to 1531 in addition to the insert of 21 amino acids) and murine c-HaRas (residues 1-189). The type II-specific insert of 21 amino acids is indicated by the number 21 above a triangle following codon 1371. This 21 amino acid insert is set forth in SEQ ID NO: 2. The solid rectangle indicates the GAP active center of 56 amino acids, whereas the shaded rectangle indicates a supporting domain of 22 amino acids.
The expression vectors were transfected into E.coli and the protein expressed as GST fusion proteins. The fusion proteins were thereafter purified from E.coli as glutathione S-transfeRase fusion proteins and affinity-purified on a glutathione (GSH)-agarose column, as described in Maruta, et al., supra.
The purified proteins were then screened for Ras GTPase stimulating activity. The assay was carried out for each of the NF357 deletion mutants.
The hydrolysis of [gamma-^32 P] GTP bound to c-HaRas protein was determined by incubating with bound protein at 25° C. for 20 minutes in the presence or absence of each NF1 mutant preparation in 100 ul of a buffer containing 50 mMTris-HCl, pH 7.5, 15 mMMgCl2, 2.5 mM EDTA, 3 mM ATP, 1 mM dithiothreitol (DTT) and 0.5 mg/ml bovine serum albumin (BSA), then precipitating the unhydrolyzed [gamma-32P] GTP with charcoal, and finally measuring the radioactivity of the [gamma-32P] inorganic phosphate in the supernatant, as described previously, Maruta et al., supra. Protein concentrations were determined by the Bradford method with BSA as a standard.

This note sets out measurements from patent US5580955A, “Fragments of neurofibromin (NF1) and method to reverse activated ras induced malignant transformation in mammalian cells” (Ludwig Institute for Cancer Research, priority 1995, dated 1996).

B1: NF78: NF1 fragment, amino acid residues 1441 to 1518 (protein)
chain: RPFNDFVKSNFDAARRFFLDIASDCPTSDAVNHSLSFISDGNVLALHRLLWNNQEKIGQYLSSNRDHKAVGRRPFDKM
On to B1, for which the “GAP activity after treatment/storage” value in series [1] is “not significantly affected”. For the same molecule, the “Ras GTPase stimulation (in words)” value in series [2] is on record as “still able to stimulate Ras GTPase activity”. The “Activation (fold), Ras GTPase activation” value in series [2] (20 ug/ml NF1 mutants, 25° C., 20 minutes) is 6 fold. For the same molecule, the “EC50, concentration required for 50% hydrolysis of GTP bound Ras” value in series [2] (25° C., 20 minutes) was found to be 25 µg/mL. In series [2] (deletion of the C-terminal 13 amino acids from NF91), the “reduction of GTPase activity relative to NF91” value worked out at 2.5 fold.

B2: GAP1C: the 709-1044 amino acid C-terminal GTPase activating domain of GAP1 (protein, UniProt P20936 709-1044, looked up, fragment)
chain: RARYSMEKIMPEEEYSEFKELILQKELHVVYALSHVCGQDRTLLASILLRIFLHEKLESLLLCTLNDREISMEDEATTLFRATTLASTLMEQYMKATATQFVHHALKDSILKIMESKQSCELSPSKLEKNEDVNTNLTHLLNILSELVEKIFMASEILPPTLRYIYGCLQKSVQHKWPTNTTMRTRVVSGFVFLRLICPAILNPRMFNIISDSPSPIAARTLILVAKSVQNLANLVEFGAKEPYMEGVNPFIKSNKHRMIMFLDELGNVPELPDTTEHSRTDLSRDLAALHEICVAHSDELRTLSNERGAQQHVLKKLLAITELLQQKQNQYTKTN
As to B2, the “GAP activity after treatment/storage” value in series [1] is given as “completely inactivated”.
